Assay results: patent US20030108992A1
Values belong to the substance of their own block, whether it stands above or below them.

Assays:
Fas 1-210:YFP (human) = Fas 1-210:YFP (human) (UniProt P25445); experiment: CFP dequenching after YFP photobleaching, fluorescence microscope
p60 TNFR (endogenous) = p60 TNFR (endogenous) (UniProt P19438); experiment: cell-based or functional assay
p60ΔCD-HA L112E [1] = biological target: p60ΔCD-HA L112E (UniProt P19438); experiment: flow cytometry of transfected cells; normalized against HA staining
p60ΔCD-HA K32A [2] = biological target: p60ΔCD-HA K32A (UniProt P19438); experiment: as above
p60ΔCD-HA W108T [3] = biological target: p60ΔCD-HA W108T (UniProt P19438); experiment: as above
p60ΔCD-HA KY19/20AA [4] = biological target: p60ΔCD-HA KY19/20AA (UniProt P19438); experiment: as above
p60ΔCD-HA E57A [5] = biological target: p60ΔCD-HA E57A (UniProt P19438); experiment: as above
p60ΔCD-HA N66F [6] = biological target: p60ΔCD-HA N66F (UniProt P19438); experiment: as above
p60ΔCD-HA DT49/50AA [7] = biological target: p60ΔCD-HA DT49/50AA (UniProt P19438); experiment: as above
p60ΔCD-HA T61A [8] = biological target: p60ΔCD-HA T61A (UniProt P19438); experiment: as above
p60 55-211 [9] = biological target: p60 55-211 (UniProt P19438); experiment: as above
p60ΔCD-HA Q24A [10] = biological target: p60ΔCD-HA Q24A (UniProt P19438); experiment: as above
p60ΔCD-HA R77A [11] = biological target: p60ΔCD-HA R77A (UniProt P19438); experiment: as above
p60ΔCD-HA [12] = biological target: p60ΔCD-HA (UniProt P19438); experiment: as above
p60ΔCD-HA K19E [13] = biological target: p60ΔCD-HA K19E (UniProt P19438); experiment: as above
p60ΔCD-HA L112E [14] = biological target: p60ΔCD-HA L112E (UniProt P19438); experiment: flow cytometry of transfected cells; % MAB225 positive / % HA positive
p60ΔCD-HA K32A [15] = biological target: p60ΔCD-HA K32A (UniProt P19438); experiment: as above
p60ΔCD-HA W108T [16] = biological target: p60ΔCD-HA W108T (UniProt P19438); experiment: as above
p60ΔCD-HA KY19/20AA [17] = biological target: p60ΔCD-HA KY19/20AA (UniProt P19438); experiment: as above
p60ΔCD-HA E57A [18] = biological target: p60ΔCD-HA E57A (UniProt P19438); experiment: as above
p60ΔCD-HA N66F [19] = biological target: p60ΔCD-HA N66F (UniProt P19438); experiment: as above
p60ΔCD-HA DT49/50AA [20] = biological target: p60ΔCD-HA DT49/50AA (UniProt P19438); experiment: as above
p60ΔCD-HA T61A [21] = biological target: p60ΔCD-HA T61A (UniProt P19438); experiment: as above
p60 55-211 [22] = biological target: p60 55-211 (UniProt P19438); experiment: as above
p60ΔCD-HA Q24A [23] = biological target: p60ΔCD-HA Q24A (UniProt P19438); experiment: as above
p60ΔCD-HA R77A [24] = biological target: p60ΔCD-HA R77A (UniProt P19438); experiment: as above
p60ΔCD-HA [25] = biological target: p60ΔCD-HA (UniProt P19438); experiment: as above
p60ΔCD-HA K19E [26] = biological target: p60ΔCD-HA K19E (UniProt P19438); experiment: as above

FRET efficiency (Fas 1-210:YFP (human)): 16%
Substance: Fas 1-210:CFP (from UniProt P25445 17-226) (receptor)

Substance: p60 55-211 (from UniProt P19438 55-211) (receptor)
DOMINANT … (protection against TNF-induced death) (p60 TNFR (endogenous)): < 5 % protection

clone 4.12 staining normalized to HA staining (ratio, p60ΔCD set at 1) (p60ΔCD-HA L112E [1]): 1.27
clone 4.12 staining normalized to HA staining (ratio, p60ΔCD set at 1) (p60ΔCD-HA K32A [2]): 0.01
clone 4.12 staining normalized to HA staining (ratio, p60ΔCD set at 1) (p60ΔCD-HA W108T [3]): 1.11
clone 4.12 staining normalized to HA staining (ratio, p60ΔCD set at 1) (p60ΔCD-HA KY19/20AA [4]): 0.14
clone 4.12 staining normalized to HA staining (ratio, p60ΔCD set at 1) (p60ΔCD-HA E57A [5]): 0.04
clone 4.12 staining normalized to HA staining (ratio, p60ΔCD set at 1) (p60ΔCD-HA N66F [6]): 0.04
clone 4.12 staining normalized to HA staining (ratio, p60ΔCD set at 1) (p60ΔCD-HA DT49/50AA [7]): 0.96
clone 4.12 staining normalized to HA staining (ratio, p60ΔCD set at 1) (p60ΔCD-HA T61A [8]): 1.28
clone 4.12 staining normalized to HA staining (ratio, p60ΔCD set at 1) (p60 55-211 [9]): 0.02
clone 4.12 staining normalized to HA staining (ratio, p60ΔCD set at 1) (p60ΔCD-HA Q24A [10]): 0.97
clone 4.12 staining normalized to HA staining (ratio, p60ΔCD set at 1) (p60ΔCD-HA R77A [11]): 0.99
clone 4.12 staining normalized to HA staining (ratio, p60ΔCD set at 1) (p60ΔCD-HA [12]): 1
clone 4.12 staining normalized to HA staining (ratio, p60ΔCD set at 1) (p60ΔCD-HA K19E [13]): 1.07
Substance: p60-specific monoclonal antibody clone 4.12 (Zymed)

MAB225 staining normalized to HA staining (ratio, p60ΔCD set at 1) (p60ΔCD-HA L112E [14]): 1.31
MAB225 staining normalized to HA staining (ratio, p60ΔCD set at 1) (p60ΔCD-HA K32A [15]): 0.36
MAB225 staining normalized to HA staining (ratio, p60ΔCD set at 1) (p60ΔCD-HA W108T [16]): 1.32
MAB225 staining normalized to HA staining (ratio, p60ΔCD set at 1) (p60ΔCD-HA KY19/20AA [17]): 0.59
MAB225 staining normalized to HA staining (ratio, p60ΔCD set at 1) (p60ΔCD-HA E57A [18]): 1.68
MAB225 staining normalized to HA staining (ratio, p60ΔCD set at 1) (p60ΔCD-HA N66F [19]): 0.67
MAB225 staining normalized to HA staining (ratio, p60ΔCD set at 1) (p60ΔCD-HA DT49/50AA [20]): 1.16
MAB225 staining normalized to HA staining (ratio, p60ΔCD set at 1) (p60ΔCD-HA T61A [21]): 1.42
MAB225 staining normalized to HA staining (ratio, p60ΔCD set at 1) (p60 55-211 [22]): 0.87
MAB225 staining normalized to HA staining (ratio, p60ΔCD set at 1) (p60ΔCD-HA Q24A [23]): 1.06
MAB225 staining normalized to HA staining (ratio, p60ΔCD set at 1) (p60ΔCD-HA R77A [24]): 1.06
MAB225 staining normalized to HA staining (ratio, p60ΔCD set at 1) (p60ΔCD-HA [25]): 1
MAB225 staining normalized to HA staining (ratio, p60ΔCD set at 1) (p60ΔCD-HA K19E [26]): 1.05
Substance: p60-specific monoclonal antibody clone MAB225 (R&D Systems)

Substance: p60ΔCD-HA (from UniProt P19438 30-240) (receptor)
DOMINANT … (protection against TNF-induced death) (% of p60ΔCD wild type) (p60 TNFR (endogenous)): 50

Substance: p60ΔCD-HA DT49/50AA (from UniProt P19438 30-240) (receptor)
DOMINANT … (protection against TNF-induced death) (% of p60ΔCD wild type) (p60 TNFR (endogenous)): 50

Substance: p60ΔCD-HA E57A (from UniProt P19438 30-240) (receptor)
DOMINANT … (protection against TNF-induced death) (% of p60ΔCD wild type) (p60 TNFR (endogenous)): 50

Substance: p60ΔCD-HA K19E (from UniProt P19438 30-240) (receptor)
DOMINANT … (protection against TNF-induced death) (% of p60ΔCD wild type) (p60 TNFR (endogenous)): 50

Substance: p60ΔCD-HA K32A (from UniProt P19438 30-240) (receptor)
DOMINANT … (protection against TNF-induced death) (p60 TNFR (endogenous)): < 5 % protection

Substance: p60ΔCD-HA KY19/20AA (from UniProt P19438 30-240) (receptor)
DOMINANT … (protection against TNF-induced death) (p60 TNFR (endogenous)): < 5 % protection

Substance: p60ΔCD-HA L112E (from UniProt P19438 30-240) (receptor)
DOMINANT … (protection against TNF-induced death) (% of p60ΔCD wild type) (p60 TNFR (endogenous)): 50

Substance: p60ΔCD-HA N66F (from UniProt P19438 30-240) (receptor)
DOMINANT … (protection against TNF-induced death) (% of p60ΔCD wild type) (p60 TNFR (endogenous)): 50

Substance: p60ΔCD-HA Q24A (from UniProt P19438 30-240) (receptor)
DOMINANT … (protection against TNF-induced death) (% of p60ΔCD wild type) (p60 TNFR (endogenous)): 50

Substance: p60ΔCD-HA R77A (from UniProt P19438 30-240) (receptor)
DOMINANT … (protection against TNF-induced death) (% of p60ΔCD wild type) (p60 TNFR (endogenous)): 50

Substance: p60ΔCD-HA T61A (from UniProt P19438 30-240) (receptor)
DOMINANT … (protection against TNF-induced death) (% of p60ΔCD wild type) (p60 TNFR (endogenous)): 50

Substance: p60ΔCD-HA W108T (from UniProt P19438 30-240) (receptor)
DOMINANT … (protection against TNF-induced death) (% of p60ΔCD wild type) (p60 TNFR (endogenous)): 50
